The series “crystal structure” deals with the molecule itself. Description: crystal structure.
The series “FRET or BRET” deals with the molecule itself. In words: FRET or BRET. In general terms: Bioluminescence resonance energy transfer reports proximity on the nanometre scale.

Consider two proteins from paper PMC2758918 (Nature structural & molecular biology, 2009).

Where a chain is given by its changes, count along the chain named. In names and notes the source's numbering stands.

B1: zinc transporter YiiP from Escherichia coli (natural protein, UniProt P69380 1-300, looked up)
chain: MNQSYGRLVSRAAIAATAMASLLLLIKIFAWWYTGSVSILAALVDSLVDIGASLTNLLVVRYSLQPADDNHSFGHGKAESLAALAQSMFISGSALFLFLTGIQHLISPTPMTDPGVGVIVTIVALICTIILVSFQRWVVRRTQSQAVRADMLHYQSDVMMNGAILLALGLSWYGWHRADALFALGIGIYILYSALRMGYEAVQSLLDRALPDEERQEIIDIVTSWPGVSGAHDLRTRQSGPTRFIQIHLEMEDSLPLVQAHMVADQVEQAILRRFPGSDVIIHQDPCSVVPREGKRSMLS
modifications: ethyl mercury phosphate or thiomerosal bound to C127 (crystal derivatives)
Usually stoichiometry N stands for the number of molecules, sites or subunits per partner or assembly. B1: the “stoichiometry N” value in “crystal structure” was 2.

B2: YiiP^C127V doubly labeled with Alexa-488 and Alexa-647 (natural protein, Escherichia coli, UniProt P69380 1-300, looked up)
chain: B1 chain with C127V
modifications: Alexa donor-acceptor pair (Alexa-488, Alexa-647) on cysteine (Cys287)
With B2, the binding result in the series “FRET or BRET” was “binds”.
